Substitutions are numbered along the chain they refer to.
T1: human p40 single mutant M23T (human, UniProt P29460 23-328)
T1 construct: HEK293E supernatant
T1 sequence: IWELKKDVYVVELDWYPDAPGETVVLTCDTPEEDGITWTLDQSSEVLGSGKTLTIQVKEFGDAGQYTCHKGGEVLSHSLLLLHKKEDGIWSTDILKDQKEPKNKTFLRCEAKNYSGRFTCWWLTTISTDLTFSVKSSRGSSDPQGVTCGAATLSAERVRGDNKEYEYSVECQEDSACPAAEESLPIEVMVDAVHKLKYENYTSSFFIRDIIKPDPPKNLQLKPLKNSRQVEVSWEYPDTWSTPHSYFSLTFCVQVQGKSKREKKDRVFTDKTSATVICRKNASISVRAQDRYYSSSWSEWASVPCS

T2: human p40 single mutant L40T (human, UniProt P29460 23-328)
T2 construct: HEK293E supernatant
T2 sequence: T1 sequence with T23M, L40T

T3: human p40 single mutant S43R (human, UniProt P29460 23-328)
T3 construct: HEK293E supernatant
T3 sequence: T1 sequence with T23M, S43R

T4: human p40 single mutant E45A (human, UniProt P29460 23-328)
T4 construct: HEK293E supernatant
T4 sequence: T1 sequence with T23M, E45A

B1: IL-12/IL-23p40 mAb (antibody, V domains shown)
VH: EVQLVQSGAEVKKPGESLKISCKGSGYSFTTYWLGWVRQMPGKGLDWIGIMSPVDSDIRYSPSFQGQVTMSVDKSITTAYLQWNSLKASDTAMYYCARRRPGQGYFDFWGQGTLVTVSS
VL: DIQMTQSPSSLSASVGDRVTITCRASQGISSWLAWYQQKPEKAPKSLIYAASSLQSGVPSRFSGSGSGTDFTLTISSLQPEDFATYYCQQYNIYPYTFGQGTKLEIKR
notes: Fully human monoclonal IgG from a mammalian cell line, purified on protein A; also called IL-12/23p40 mAb; IL-12 p40 antibody

What was measured:
IL-12 (mouse) (mouse) = IL-12 (mouse) (mouse) (UniProt P43432); assay: cell-based or functional assay; settings: scale: fold more effective than the anti-p35 mAb
[1] = target: T1, human p40 single mutant M23T; assay: capture assay, relative binding affinity of the mAb to p40 muteins (FIG. 4)
Protocol: (§1) In brief, MSD high bind plates (Meso Scale Discovery, MD) were coated with 5 μl of a capture monoclonal antibody (5 μg/ml) at room temperature for 1 hour. […] One-hundred and fifty (150) μl of 5% MSD Blocker A buffer was added to each well and incubated for 1 hr at room temperature. Plates were washed three times with 0.1 M HEPES buffer (pH 7.4). These protein-charged ELISA plates were incubated with 25 μl of different transiently expressed p40 mutant supernatants (1:10 dilution with 0.1 M HEPES buffer, pH 7.4) for 1 hr at room temperature. The plates were washed three times with 0.1 M HEPES buffer (pH 7.4). Twenty-five (25) μ1 of different concentrations of MSD Sulfo-TAG labeled p40 mAb, ranging from 0 to 20 μg/ml, were dispensed to micro-wells. After incubation for 2 hrs shaking at room temperature, plates were washed 3 times with 0.1 M HEPES buffer (pH 7.4). One hundred and fifty (150) μ1 of diluted MSD Read Buffer T was dispensed into each well and the plates were analyzed with a SECTOR imager (MSD).

[2] = target: T2, human p40 single mutant L40T; assay: as above
Protocol: as §1

[3] = target: T3, human p40 single mutant S43R; assay: as above
Protocol: as §1

[4] = target: T4, human p40 single mutant E45A; assay: as above
Protocol: as §1

Sequence of IL-12 (mouse) (mouse) (P43432 23-335 limits assumed, chain 1 of 2): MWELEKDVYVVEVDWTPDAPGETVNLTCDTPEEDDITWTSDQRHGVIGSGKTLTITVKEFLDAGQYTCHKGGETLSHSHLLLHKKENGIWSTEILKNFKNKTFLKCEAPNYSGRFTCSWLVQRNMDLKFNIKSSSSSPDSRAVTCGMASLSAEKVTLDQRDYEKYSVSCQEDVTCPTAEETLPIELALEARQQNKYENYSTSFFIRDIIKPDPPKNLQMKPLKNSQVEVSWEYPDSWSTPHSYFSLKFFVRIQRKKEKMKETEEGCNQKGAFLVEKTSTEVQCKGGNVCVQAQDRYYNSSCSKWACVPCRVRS
Sequence of IL-12 (mouse) (mouse) (P43431 23-215 limits assumed, chain 2 of 2, further chain): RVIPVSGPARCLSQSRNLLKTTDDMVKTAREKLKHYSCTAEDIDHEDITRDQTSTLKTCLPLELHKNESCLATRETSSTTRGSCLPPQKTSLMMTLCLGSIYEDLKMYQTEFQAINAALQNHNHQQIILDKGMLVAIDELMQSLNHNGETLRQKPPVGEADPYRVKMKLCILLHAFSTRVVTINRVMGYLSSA

neutralizing IL-12 (in vitro neutralization studies) (IL-12 (mouse) (mouse)) | reduction of binding [1] | reduction of binding [2] | reduction of binding [3] | reduction of binding [4] | Molecule
5 |  |  |  |  | C17.8 (rat anti-mouse IL-12/IL-23p40, IgG2a) (antibody)
 | ~40% | ~40% | ~40% | ~70% | B1

— US20200384081A1 (Janssen / Centocor, published 2020)
